This passage reports degradation_or_half_life results from paper PMC9647470.

This series in a line: cycloheximide chase, endogenous CK2α, HEK293T. The settings on record: glycan lost; control: untreated.

B1: Casein kinase 2 alpha (CK2α): OSMI-4b (protein)
parent chain: MSGPVPSRARVYTDVNTHRPREYWDYESHVVEWGNQDDYQLVRKLGRGKYSEVFEAINITNNEKVVVKILKPVKKKKIKREIKILENLRGGPNIITLADIVKDPVSRTPALVFEHVNNTDFKQLYQTLTDYDIRFYMYEILKALDYCHSMGIMHRDVKPHNVMIDHEHRKLRLIDWGLAEFYHPGQEYNVRVASRYFKGPELLVDYQMYDYSLDMWSLGCMLASMIFRKEPFFHGHDNYDQLVRIAKVLGTEDLYDYIDKYNIELDPRFNDILGRHSRKRWERFVHSENQHLVSPEALDFLDKLLRYDHQSRLTAREAMEHPYFYTVVKDQARMGSSSMPGGSTPVSSANMMSGISSVPTPSPLGPLAGSPVIAAANPLGMPVPAAAGAQQ
Regarding B1, the degradation_or_half_life result was “no change”.
